# T1: purified sIL-5Rα (Asp1-Asn313 of SEQ ID NO: 66) (Homo sapiens (Human), UniProt Q01344 21-333)
# T1 construct: also called the purified sIL-5Rα
# T1 sequence: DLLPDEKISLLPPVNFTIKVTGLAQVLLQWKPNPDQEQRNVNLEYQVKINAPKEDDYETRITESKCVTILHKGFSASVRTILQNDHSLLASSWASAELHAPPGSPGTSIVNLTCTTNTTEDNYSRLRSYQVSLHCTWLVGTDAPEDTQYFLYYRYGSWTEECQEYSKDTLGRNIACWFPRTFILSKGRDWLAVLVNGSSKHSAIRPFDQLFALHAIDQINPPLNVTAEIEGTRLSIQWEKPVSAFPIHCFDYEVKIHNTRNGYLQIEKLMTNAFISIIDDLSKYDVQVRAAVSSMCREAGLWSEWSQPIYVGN
# T2: sIL-5Rα antigen protein (Sinobio 10392-H08H) (Homo sapiens (Human), UniProt Q01344 21-342)
# T2 construct: Bought protein immobilised in the indirect ELISAs; also called soluble IL-5Rα; CD125
# T2 sequence: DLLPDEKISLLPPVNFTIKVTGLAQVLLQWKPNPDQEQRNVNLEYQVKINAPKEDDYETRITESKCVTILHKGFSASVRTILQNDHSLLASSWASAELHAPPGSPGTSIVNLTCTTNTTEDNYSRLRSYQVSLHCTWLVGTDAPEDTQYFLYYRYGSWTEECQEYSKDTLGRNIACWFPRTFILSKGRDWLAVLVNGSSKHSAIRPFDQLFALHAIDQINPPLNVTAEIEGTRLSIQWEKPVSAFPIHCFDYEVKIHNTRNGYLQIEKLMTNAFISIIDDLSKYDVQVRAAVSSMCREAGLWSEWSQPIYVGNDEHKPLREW
# What was measured:
# [1] = target: T1, purified sIL-5Rα (Asp1-Asn313 of SEQ ID …); assay: BLI (Octet QKe), antibody on AHC sensor, purified sIL-5Rα in solution, 1:1 model
# Protocol: Specifically, lx kinetic buffer was prepared by diluting 10× kinetic buffer (ForteBio, 18-1105) in PBS. […] Affinity was calculated with Octet Data Analysis software 11.0 in a 1:1 binding model.
# [2] = target: T2, sIL-5Rα antigen protein (Sinobio …); assay: indirect ELISA; plate-coated sIL-5Rα, antibody 100 nM, anti-human Fc-HRP, absorbance at 450 nm
# Protocol: (§1) The binding specificity of the antibody was determined using indirect ELISA. A multi-antigen ELISA was performed using four structurally different antigenic double-stranded DNA (dsDNA), insulin, the macromolecule hemocyanin, and the membrane component, cardiolipin. Specifically, sIL-4Rα antigen protein (50 ng/well, sinobio; 10402-H08H), sIL-5Rα antigen protein (50 ng/well, sinobio; 10392-H08H), dsDNA (25 ng/well, D4522; Sigma), insulin (125 ng/well, 19278; Sigma), hemocyanin (125 ng/well, H8283; Sigma), and cardiolipin (1250 ng/well, C0563; Sigma) proteins were immobilized on a 96-well plate at room temperature for 1 hour, and blocked using 2% skim milk containing 0.1% PBST (0.1% Tween20, pH 7.4, 137 mM NaCl, 10 mM phosphate, 2.7 mM KCl) at room temperature for 1 hour. After discarding the solution and then washing the same three times with 0.1% PBST, the antibody was diluted to 100 nM, added to the blocked plate in an amount of 25 μl/well, and allowed to react at room temperature for 1 hour. After discarding the solution and washing the same three times with 0.1% PBST, an anti-human Fc-HRP antibody (1:8000) as a secondary antibody was added in an amount of 25 μl/well and reacted at room temperature for 1 hour. After discarding the solution and washing three times with PBST, a TMB solution was added in an amount of 25 μl/well, color development was induced at room temperature for 2 minutes, the reaction was stopped using H₂SO₄ (2N), and the absorbance at 450 nm was measured with an ELISA reader.
# [3] = target: T3, sIL-4Rα (soluble IL-4Rα) antigen protein (human, UniProt P24394 26-232); assay: BLI (Octet QKe), antibody on AHC sensor, sIL-4Rα in solution, 1:1 model
# T3 construct: The ELISA and Octet assays used the bought protein (Sinobio 10402-H08H); also called CD124; sinobio 10402-H08H
# Protocol: Antigen affinity of antibodies was analyzed through variation in the refractive index occurring when the antibody bound to the antigen was detached therefrom while the AHC (anti-human IgG Fc capture) sensor chip moved in the order of kinetic buffer, antibody dilution solution, kinetic buffer, antigen dilution solution, and kinetic buffer. Affinity was calculated with Octet Data Analysis software 11.0 in a 1:1 binding model.
# [4] = target: T4, insulin (Homo sapiens (Human), UniProt P01308 25-54; P01308 90-110, Mature two-chain hormone: A and B chains joined by two interchain disulfides, plus one intrachain disulfide in the A chain; the letters do not carry these.); assay: indirect ELISA; plate-coated insulin, antibody 100 nM, anti-human Fc-HRP, absorbance at 450 nm
# T4 construct: Irrelevant antigen of the multi-antigen specificity ELISA; also called insulin (125 ng/well, 19278; Sigma)
# Protocol: as §1
# T4 sequence (P01308 25-54 limits assumed, chain 1 of 2): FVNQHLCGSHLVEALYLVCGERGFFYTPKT
# T4 sequence (P01308 90-110 limits assumed, chain 2 of 2): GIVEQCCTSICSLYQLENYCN
Binder,Kd [1],koff [1],kon [1],binding result [2],Kd [3],koff [3],kon [3],binding result [4]
"5R65 (antibody, V domains shown, IgG1 (variable regions in a pcDNA3.4 vector encoding IgG1 constant regions); also called anti-IL-5Rα humanized antibody 5R65; anti-IL-5Rα antibody (5R65)) VH: QVQLVQSGAEVKKPGSSVKVSCKASGYTFTSYWINWVRQAPGQGLEWIGHIYPNKNENYYNHKFKDKATLTVDKSTNTAYMELSSLRSEDTAVYYCTRDYYGRSYYYAMDYWGQGTTLTVSS VL: DIQMTQSPSTLSASVGDRVTITCKASQNVGTAVAWYQQKPGKAPKLLIYWASTRHTGVPDRFSGSGSGTDFTLTISSLQPDDFATYYCQQFGRYPYTFGSGTKVEVK",14.5 nM,0.000329 s⁻¹,22700 M⁻¹ s⁻¹,,,,,
"5R65.18 (antibody, IgG1, V domains shown, IgG1) VH: QVQLVQSGAEVKKPGSSVKVSCKASGYTFTSYWINWVRQAPGQGLEWIGHIYPNKNENYYNHKFKDKATLTVDKSTNTAYMELSSLRSEDTAVYYCTREYYGRTYYSAMDYWGQGTTLTVSS VL: DIQMTQSPSTLSASVGDRVTITCKASQNVGTAVAWYQQKPGKAPKLLIYWASTRHTGVPDRFSGSGSGTDFTLTISSLQPDDFATYYCQQFGRYPYTFGSGTKVEVK",5.95 nM,0.000133 s⁻¹,22400 M⁻¹ s⁻¹,,,,,
"4R34.1.19 antibody (antibody, V domains shown, Parent anti-IL-4Rα antibody, tested as IgG1 and captured through human Fc; also called anti-IL-4Rα antibody (4R34.1.19)) VH: EVQLLESGGGLVQPGGSLRLSCAASGFTFSRHAMAWVRQAPGKGLEWVSAITSSGRSIYYADSVKGRFTISRDNSKNTLYLQMNSLRAEDTAVYYCARVHRAFDYWGQGTLVTVSS VL: QSVLTQPPSASGTPGQRVTISCSGSPLFPDSGSFNWYQQLPGTAPKLLIYADSHRPSGVPDRFSGSKSGTSASLAISGLRSEDEADYYCGTWDYSLSGYVLGGGTKLTVLG",,,,binds,,,,
"4R.N4 (antibody, V domains shown, Converted from scFab to IgG1 and expressed in HEK293F) VH: EVQLLESGGGLVQPGGSLRLSCAASGFTFSRHAMAWVRQAPGKGLEWVSAITMSGRGIYYADSVKGRFTISRDNSKNTLYLQMNSLRAEDTAVYYCARVHRAFDYWGQGTLVTVSS VL: QSVLTQPPSASGTPGQRVTISCSGSPLFPDSGSFNWYQQLPGTAPKLLIYADSHRPSGVPDRFSGSKSGTSASLAISGLRSEDEADYYCGTWDYSLSAYVLGGGTKLTVLG",,,,no binding (tested: 100 nM),0.0997 nM,0.000162 s⁻¹,1.63e+06 M⁻¹ s⁻¹,no binding (tested: 100 nM)
"4R.N3 (antibody, V domains shown, Converted from scFab to IgG1 and expressed in HEK293F) VH: EVQLLESGGGLVQPGGSLRLSCAASGFTFSRHAMAWVRQAPGKGLEWVSAITMSGRSIYYADSVKGRFTISRDNSKNTLYLQMNSLRAEDTAVYYCARVHRAFDYWGQGTLVTVSS VL: QSVLTQPPSASGTPGQRVTISCSGSPLFPDSGSFNWYQQLPGTAPKLLIYADSHRPSGVPDRFSGSKSGTSASLAISGLRSEDEADYYCGTWDYSLNRYVLGGGTKLTVLG",,,,no binding (tested: 100 nM),0.0686 nM,0.000139 s⁻¹,2.02e+06 M⁻¹ s⁻¹,no binding (tested: 100 nM)

# Further lines, results first:
Kd [1],koff [1],kon [1],binding result [2],Kd [3],koff [3],kon [3],binding result [4],Binder
8.64 nM,0.000199 s⁻¹,23000 M⁻¹ s⁻¹,,,,,,"5R65.14 (antibody, IgG1, V domains shown, IgG1) VH: QVQLVQSGAEVKKPGSSVKVSCKASGYTFTSYWINWVRQAPGQGLEWIGHIYPNKNENYYNHKFKDKATLTVDKSTNTAYMELSSLRSEDTAVYYCTREHYGRPYYNAMDYWGQGTTLTVSS VL: DIQMTQSPSTLSASVGDRVTITCKASQNVGTAVAWYQQKPGKAPKLLIYWASTRHTGVPDRFSGSGSGTDFTLTISSLQPDDFATYYCQQFGRYPYTFGSGTKVEVK"
4.64 nM,0.000147 s⁻¹,31700 M⁻¹ s⁻¹,,,,,,"5R65.7 (antibody, IgG1, V domains shown, IgG1) VH: QVQLVQSGAEVKKPGSSVKVSCKASGYTFTSYWINWVRQAPGQGLEWIGHIYPNKNENYYNHKFKDKATLTVDKSTNTAYMELSSLRSEDTAVYYCTREFYGRQYYQAMDYWGQGTTLTVSS VL: DIQMTQSPSTLSASVGDRVTITCKASQNVGTAVAWYQQKPGKAPKLLIYWASTRHTGVPDRFSGSGSGTDFTLTISSLQPDDFATYYCQQFGRYPYTFGSGTKVEVK"
8.25 nM,0.000201 s⁻¹,24400 M⁻¹ s⁻¹,,,,,,"5R65.10 (antibody, IgG1, V domains shown, IgG1) VH: QVQLVQSGAEVKKPGSSVKVSCKASGYTFTSYWINWVRQAPGQGLEWIGHIYPNKNENYYNHKFKDKATLTVDKSTNTAYMELSSLRSEDTAVYYCTREYYGRSYYAAMDYWGQGTTLTVSS VL: DIQMTQSPSTLSASVGDRVTITCKASQNVGTAVAWYQQKPGKAPKLLIYWASTRHTGVPDRFSGSGSGTDFTLTISSLQPDDFATYYCQQFGRYPYTFGSGTKVEVK"
,,,no binding (tested: 100 nM),0.0431 nM,6.07e-05 s⁻¹,1.55e+06 M⁻¹ s⁻¹,no binding (tested: 100 nM),"4R.N7 (antibody, V domains shown, Converted from scFab to IgG1 and expressed in HEK293F) VH: EVQLLESGGGLVQPGGSLRLSCAASGFTFSRHAMAWVRQAPGKGLEWVSAITASGRSIYYADSVKGRFTISRDNSKNTLYLQMNSLRAEDTAVYYCARVHRAFDYWGQGTLVTVSS VL: QSVLTQPPSASGTPGQRVTISCSGSPLFPDSGSFNWYQQLPGTAPKLLIYADSHRPSGVPDRFSGSKSGTSASLAISGLRSEDEADYYCGTWDYSLSSYVLGGGTKLTVLG"
,,,no binding (tested: 100 nM),0.17 nM,0.000338 s⁻¹,1.99e+06 M⁻¹ s⁻¹,no binding (tested: 100 nM),"4R.N1 (antibody, V domains shown, Converted from scFab to IgG1 (pcDNA3.4 vector with IgG1 constant regions) and expressed in HEK293F) VH: EVQLLESGGGLVQPGGSLRLSCAASGFTFSRHAMAWVRQAPGKGLEWVSAITASGRSIYYADSVKGRFTISRDNSKNTLYLQMNSLRAEDTAVYYCARVHRAFDYWGQGTLVTVSS VL: QSVLTQPPSASGTPGQRVTISCSGSPLFPDSGSFNWYQQLPGTAPKLLIYADSHRPSGVPDRFSGSKSGTSASLAISGLRSEDEADYYCGTWDYSLNRYVLGGGTKLTVLG"
,,,,0.0748 nM,0.00012 s⁻¹,1.6e+06 M⁻¹ s⁻¹,,"4R.N5 (antibody, V domains shown, Converted from scFab to IgG1 and expressed in HEK293F) VH: EVQLLESGGGLVQPGGSLRLSCAASGFTFSRHAMAWVRQAPGKGLEWVSAITASGMSIYYADFAKGRFTISRDNSKNTLYLQMNSLRAEDTAVYYCARVHRAFDYWGQGTLVTVSS VL: QSVLTQPPSASGTPGQRVTISCSGSPLFPDSGSFNWYQQLPGTAPKLLIYADSHRPSGVPDRFSGSKSGTSASLAISGLRSEDEADYYCGTWDYSLNRYVLGGGTKLTVLG"
,,,no binding (tested: 100 nM),0.0705 nM,0.000126 s⁻¹,1.79e+06 M⁻¹ s⁻¹,no binding (tested: 100 nM),"4R.N6 (antibody, V domains shown, Converted from scFab to IgG1 and expressed in HEK293F) VH: EVQLLESGGGLVQPGGSLRLSCAASGFTFSRHAMAWVRQAPGKGLEWVSAITMSGRSIYYADSVKGRFTISRDNSKNTLYLQMNSLRAEDTAVYYCARVHRAFDYWGQGTLVTVSS VL: QSVLTQPPSASGTPGQRVTISCSGSPLFPDSGSFNWYQQLPGTAPKLLIYADSHRPSGVPDRFSGSKSGTSASLAISGLRSEDEADYYCGTWDYSLNSYVLGGGTKLTVLG"

# Source: patent publication US20230357415A1 (AJOU UNIVERSITY INDUSTRY ACADEMIC COOPERATION FOUNDATION, published 2023)
